Some targets named below: PTPN3, P26045; DLG4_2, P78352; FRMPD2_2, Q68DX3; HTRA1, Q92743; SCRIB_2, Q14160; SNX27, Q96L92; DLG1_2, Q12959; LNX1_2, Q8TBB1; MAST2, Q6P0Q8; Inadl_3, Q8NI35; FRMPD3, Q5JV73.
Experiment in all cases: holdup assay
Common to all, as to parameters: key: below the threshold = too weak to quantify, mostly under pKd 3.1 to 4
Conditions in all cases: plain residues with an end cap or a label only (N-terminal biotin on a linker: ado-ado)

The target in the next experiment is T1, LIN7A, O14910.
T1 sequence (O14910 103-200, limits assumed, looked up): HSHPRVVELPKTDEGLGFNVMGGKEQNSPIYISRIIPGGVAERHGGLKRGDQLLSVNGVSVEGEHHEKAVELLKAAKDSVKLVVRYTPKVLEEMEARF

In a further experiment the target is T2, FRMPD1, Q5SYB0.
T2 sequence (Q5SYB0 52-145, limits assumed, looked up): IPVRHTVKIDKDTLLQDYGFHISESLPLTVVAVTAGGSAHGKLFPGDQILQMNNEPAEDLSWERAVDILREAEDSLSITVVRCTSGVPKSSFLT

The target of a further experiment is T3, MPDZ_10, O75970.
T3 sequence (O75970 1624-1722, limits assumed, looked up): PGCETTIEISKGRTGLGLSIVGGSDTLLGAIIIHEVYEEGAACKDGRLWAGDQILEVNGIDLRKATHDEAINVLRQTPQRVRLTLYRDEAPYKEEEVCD

The next experiment has as its target T4, SYNJ2BP, P57105.
T4 sequence (P57105 8-110, limits assumed, looked up): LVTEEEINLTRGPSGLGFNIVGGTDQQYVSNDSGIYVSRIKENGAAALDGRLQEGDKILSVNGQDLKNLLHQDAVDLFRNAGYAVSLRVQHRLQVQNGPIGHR

The next experiment deals with T5, PDZRN3_1, Q9UPQ7.
T5 sequence (Q9UPQ7 244-349, limits assumed, looked up): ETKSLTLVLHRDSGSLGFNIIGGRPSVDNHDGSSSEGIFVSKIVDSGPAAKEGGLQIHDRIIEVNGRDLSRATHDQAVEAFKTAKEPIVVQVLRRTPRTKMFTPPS

The target of a further experiment is T6, PDZD7_3, Q9H5P4.
T6 sequence (Q9H5P4 857-944, limits assumed, looked up): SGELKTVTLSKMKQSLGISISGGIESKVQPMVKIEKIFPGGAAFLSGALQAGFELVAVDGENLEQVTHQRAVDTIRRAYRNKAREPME

The next experiment concerns the target T7, DFNB31_1, Q9P202.
T7 sequence (Q9P202 135-233, limits assumed, looked up): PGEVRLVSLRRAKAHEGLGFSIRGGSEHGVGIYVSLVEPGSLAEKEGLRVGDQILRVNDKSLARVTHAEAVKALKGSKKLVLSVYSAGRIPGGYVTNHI

The next experiment addresses T8, LNX2_2, Q8N448.
T8 sequence (Q8N448 334-432, limits assumed, looked up): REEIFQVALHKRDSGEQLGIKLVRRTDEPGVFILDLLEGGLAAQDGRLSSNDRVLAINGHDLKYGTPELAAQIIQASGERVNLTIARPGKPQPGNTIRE

The next experiment concerns the target T9, RAPGEF6, Q8TEU7.
T9 sequence (Q8TEU7 525-625, limits assumed, looked up): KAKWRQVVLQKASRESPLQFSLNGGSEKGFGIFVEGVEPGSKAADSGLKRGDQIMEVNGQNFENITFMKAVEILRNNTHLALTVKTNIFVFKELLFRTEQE

A further experiment has as its target T10, NHERF3_4, Q5T2W1.
T10 sequence (Q5T2W1 373-468, limits assumed, looked up): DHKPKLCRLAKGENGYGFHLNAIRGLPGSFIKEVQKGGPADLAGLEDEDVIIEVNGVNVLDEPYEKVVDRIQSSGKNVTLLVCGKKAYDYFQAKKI

A further experiment deals with T11, TIAM2, Q8IVF5.
T11 sequence (Q8IVF5 885-986, limits assumed, looked up): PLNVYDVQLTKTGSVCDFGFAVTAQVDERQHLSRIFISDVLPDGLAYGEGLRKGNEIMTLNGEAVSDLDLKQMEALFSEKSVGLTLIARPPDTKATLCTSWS

Another experiment deals with T12, LIN7B, Q9HAP6.
T12 sequence (Q9HAP6 88-185, limits assumed, looked up): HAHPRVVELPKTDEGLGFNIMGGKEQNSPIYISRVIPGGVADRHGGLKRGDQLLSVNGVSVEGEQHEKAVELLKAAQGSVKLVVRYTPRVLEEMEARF

The target of another experiment is T13, SIPA1L2, Q9P2F8.
T13 sequence (Q9P2F8 945-1036, limits assumed, looked up): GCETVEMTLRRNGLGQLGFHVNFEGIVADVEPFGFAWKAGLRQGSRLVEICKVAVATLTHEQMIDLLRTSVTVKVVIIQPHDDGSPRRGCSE

Chain of PTPN3, P26045 (P26045 505-587): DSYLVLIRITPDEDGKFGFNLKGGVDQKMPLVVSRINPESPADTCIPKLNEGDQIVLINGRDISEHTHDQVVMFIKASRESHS
Chain of MAST2, Q6P0Q8 (Q6P0Q8 1099-1202): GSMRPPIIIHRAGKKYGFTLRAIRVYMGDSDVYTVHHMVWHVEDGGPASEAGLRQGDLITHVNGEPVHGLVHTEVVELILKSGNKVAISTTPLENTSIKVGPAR
Chain of HTRA1, Q92743 (Q92743 360-477): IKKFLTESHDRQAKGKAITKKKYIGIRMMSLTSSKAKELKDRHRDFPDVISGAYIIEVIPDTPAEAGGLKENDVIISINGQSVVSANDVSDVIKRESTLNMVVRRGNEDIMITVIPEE
Chain of FRMPD2_2, Q68DX3 (Q68DX3 944-1038): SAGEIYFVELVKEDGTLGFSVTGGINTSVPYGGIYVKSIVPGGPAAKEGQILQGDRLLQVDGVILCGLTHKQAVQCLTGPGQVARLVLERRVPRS
Chain of DLG4_2, P78352 (P78352 155-259): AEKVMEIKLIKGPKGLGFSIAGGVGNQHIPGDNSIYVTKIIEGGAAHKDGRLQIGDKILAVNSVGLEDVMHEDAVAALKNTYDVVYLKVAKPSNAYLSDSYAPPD
Chain of DLG1_2, Q12959 (Q12959 314-412): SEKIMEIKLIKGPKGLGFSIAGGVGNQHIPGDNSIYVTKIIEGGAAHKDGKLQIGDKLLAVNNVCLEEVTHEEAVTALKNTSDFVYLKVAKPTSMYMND
Chain of LNX1_2, Q8TBB1 (Q8TBB1 371-470): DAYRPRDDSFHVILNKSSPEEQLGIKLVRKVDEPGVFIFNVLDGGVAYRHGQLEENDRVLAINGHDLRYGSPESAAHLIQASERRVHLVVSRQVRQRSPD
Chain of SCRIB_2, Q14160 (Q14160 857-960): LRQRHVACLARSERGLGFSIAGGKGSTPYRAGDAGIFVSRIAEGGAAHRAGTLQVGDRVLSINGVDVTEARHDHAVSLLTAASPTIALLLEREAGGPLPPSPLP
Chain of FRMPD3, Q5JV73 (Q5JV73 12-100): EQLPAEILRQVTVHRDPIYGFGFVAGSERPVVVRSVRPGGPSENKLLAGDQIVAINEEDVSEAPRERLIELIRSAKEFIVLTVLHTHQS
Chain of Inadl_3, Q8NI35 (Q8NI35 359-469): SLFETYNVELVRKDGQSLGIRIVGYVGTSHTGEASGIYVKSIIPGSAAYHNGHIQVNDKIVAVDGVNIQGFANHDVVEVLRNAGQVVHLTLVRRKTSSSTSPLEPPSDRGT

In the case of WRSKRTDTLL [RAMP3, O60896], the pKd (commonly −log10 of the Kd, conventionally taken in molar units) with PTPN3, P26045 is 4.22; with DLG4_2, P78352, 3.98; with FRMPD2_2, Q68DX3, “below the threshold”; in the experiment with LIN7A, O14910, “below the threshold”; with FRMPD1, Q5SYB0 it was “below the threshold”; in the experiment with MPDZ_10, O75970, “below the threshold”. Moreover, the pKd in the experiment with SYNJ2BP, P57105 was 3.84; with HTRA1, Q92743, 4.26; in the experiment with PDZRN3_1, Q9UPQ7, 3.73; with PDZD7_3, Q9H5P4 it was 3.99; with SCRIB_2, Q14160, “below the threshold”; in the experiment with DFNB31_1, Q9P202 it was 3.74. In addition, the pKd entry with LNX2_2, Q8N448 is “below the threshold”; with RAPGEF6, Q8TEU7 it was “below the threshold”; in the experiment with NHERF3_4, Q5T2W1, 3.53; with TIAM2, Q8IVF5, “below the threshold”; with LIN7B, Q9HAP6, “below the threshold”; with SNX27, Q96L92, 4.31. The pKd result in the experiment with SIPA1L2, Q9P2F8 was “below the threshold”; with DLG1_2, Q12959, 4.29; with LNX1_2, Q8TBB1, “below the threshold”; with MAST2, Q6P0Q8, 5.45; in the experiment with Inadl_3, Q8NI35, “below the threshold”; in the experiment with FRMPD3, Q5JV73 it was “below the threshold”.

With VISERNSTTV [C3AR1, Q16581], the pKd in the experiment with PTPN3, P26045 was 4.01; with DLG4_2, P78352 it was 4.65; in the experiment with FRMPD2_2, Q68DX3 it was “below the threshold”; with LIN7A, O14910, “below the threshold”; with FRMPD1, Q5SYB0, “below the threshold”; in the experiment with MPDZ_10, O75970 it was “below the threshold”. Also, the pKd with SYNJ2BP, P57105 was 4.68; with HTRA1, Q92743, 4.2; with PDZRN3_1, Q9UPQ7, “below the threshold”; with PDZD7_3, Q9H5P4 it was 4.41; with SCRIB_2, Q14160, 3.71; in the experiment with DFNB31_1, Q9P202, “below the threshold”. Besides, the pKd in the experiment with LNX2_2, Q8N448 is 5.05; with RAPGEF6, Q8TEU7 it was “below the threshold”; in the experiment with NHERF3_4, Q5T2W1 it was “below the threshold”; with TIAM2, Q8IVF5, “below the threshold”; in the experiment with LIN7B, Q9HAP6, “below the threshold”; in the experiment with SNX27, Q96L92 it was 4.57. The pKd entry with SIPA1L2, Q9P2F8 is “below the threshold”; in the experiment with DLG1_2, Q12959, 4.72; with LNX1_2, Q8TBB1, 3.78; in the experiment with MAST2, Q6P0Q8, 5.2; with Inadl_3, Q8NI35, “below the threshold”; with FRMPD3, Q5JV73 it was “below the threshold”.

SKSLERATQL [COMMD3, Q9UBI1]: the negative logarithm of the Kd (pKd) with PTPN3, P26045 was 4.91; with DLG4_2, P78352, 3.97; with FRMPD2_2, Q68DX3, 3.65; in the experiment with LIN7A, O14910, “below the threshold”; with FRMPD1, Q5SYB0, “below the threshold”; with MPDZ_10, O75970, “below the threshold”. The negative-log Kd (pKd) in the experiment with SYNJ2BP, P57105 came to 3.73; with HTRA1, Q92743 it was 3.89; in the experiment with PDZRN3_1, Q9UPQ7, 4.11; in the experiment with PDZD7_3, Q9H5P4, 4.23; in the experiment with SCRIB_2, Q14160, 3.55; in the experiment with DFNB31_1, Q9P202, 3.74. For the same molecule, the pKd with LNX2_2, Q8N448 worked out at 3.56; with RAPGEF6, Q8TEU7 it was 3.85; with NHERF3_4, Q5T2W1, 4.67; in the experiment with TIAM2, Q8IVF5 it was 3.88; in the experiment with LIN7B, Q9HAP6 it was 3.87; with SNX27, Q96L92, 4.25. For the same molecule, the negative logarithm of the Kd (pKd) was 3.51 with SIPA1L2, Q9P2F8; 3.92 with DLG1_2, Q12959; “below the threshold” with LNX1_2, Q8TBB1; 5.7 with MAST2, Q6P0Q8; “below the threshold” in the experiment with Inadl_3, Q8NI35; “below the threshold” with FRMPD3, Q5JV73.

For the molecule REVVMRVTTV [MARCHF9, Q86YJ5], the negative-log Kd (pKd) is 4.91 with PTPN3, P26045; 5.27 with DLG4_2, P78352; 4.11 in the experiment with FRMPD2_2, Q68DX3; 3.82 with LIN7A, O14910; “below the threshold” with FRMPD1, Q5SYB0; 4.4 with MPDZ_10, O75970. For the same molecule, the pKd worked out at 4.82 with SYNJ2BP, P57105; 4.83 with HTRA1, Q92743; 3.81 with PDZRN3_1, Q9UPQ7; 5.24 with PDZD7_3, Q9H5P4; 4.15 with SCRIB_2, Q14160; 3.98 with DFNB31_1, Q9P202. Moreover, the pKd with LNX2_2, Q8N448 is 5.6; with RAPGEF6, Q8TEU7 it was “below the threshold”; with NHERF3_4, Q5T2W1, “below the threshold”; with TIAM2, Q8IVF5, 3.85; with LIN7B, Q9HAP6, 4.16; in the experiment with SNX27, Q96L92, 5.46. Further, the pKd result in the experiment with SIPA1L2, Q9P2F8 was “below the threshold”; in the experiment with DLG1_2, Q12959 it was 5.44; with LNX1_2, Q8TBB1, 4.56; in the experiment with MAST2, Q6P0Q8, 5.59; with Inadl_3, Q8NI35, 3.94; with FRMPD3, Q5JV73, “below the threshold”.

In the case of QELLEYETTV [XKR7, Q5GH72], the pKd in the experiment with PTPN3, P26045 was 4.85; in the experiment with DLG4_2, P78352 it was 4.91; with FRMPD2_2, Q68DX3 it was 4.83; in the experiment with LIN7A, O14910, 4.38; in the experiment with FRMPD1, Q5SYB0 it was “below the threshold”; with MPDZ_10, O75970, “below the threshold”. In addition, the pKd came to 4.98 with SYNJ2BP, P57105; 4.69 with HTRA1, Q92743; 4.33 with PDZRN3_1, Q9UPQ7; 4.85 with PDZD7_3, Q9H5P4; 4.42 with SCRIB_2, Q14160; 4.2 with DFNB31_1, Q9P202. Moreover, the pKd with LNX2_2, Q8N448 was 4.71; with RAPGEF6, Q8TEU7, “below the threshold”; with NHERF3_4, Q5T2W1 it was “below the threshold”; with TIAM2, Q8IVF5, “below the threshold”; with LIN7B, Q9HAP6, 4.5; with SNX27, Q96L92 it was 5.77. Moreover, the pKd entry was “below the threshold” in the experiment with SIPA1L2, Q9P2F8; 5.14 with DLG1_2, Q12959; 3.73 in the experiment with LNX1_2, Q8TBB1; 5.46 in the experiment with MAST2, Q6P0Q8; 4.63 in the experiment with Inadl_3, Q8NI35; “below the threshold” in the experiment with FRMPD3, Q5JV73.

For the origin of these results see PMC9482650, “Quantitative fragmentomics allow affinity mapping of interactomes” (Nature Communications, 2022).
